The Human Domainome abundance scans (Beltran et al. 2025)
± gives the uncertainty stated by the source.

Assay: abundance fitness (aPCA) (normalised: wild type 0, dead -1); higher = more abundant; growth selection in yeast, the domain comes from the species named
Conditions: Homo sapiens
In the case of “Telomeric repeat-binding factor 2 A513T, Q15554”, the abundance fitness is reported as 0.25 ± 0.098.
In the case of “Telomeric repeat-binding factor 2 A514R, Q15554”, the abundance fitness is reported as -0.428 ± 0.11.
For “Telomeric repeat-binding factor 2 E509V, Q15554”, the abundance fitness was -0.353 ± 0.076.
“Telomeric repeat-binding factor 2 I529L, Q15554” gave an abundance fitness of -0.213 ± 0.079.
“Telomeric repeat-binding factor 2 K491R, Q15554” showed an abundance fitness of -0.21 ± 0.065.
In the case of “Telomeric repeat-binding factor 2 K517Q, Q15554”, the abundance fitness is reported as -0.035 ± 0.044.
Substance “Telomeric repeat-binding factor 2 N518H, Q15554” has an abundance fitness of -0.227 ± 0.068.
In the case of “Telomeric repeat-binding factor 2 N523D, Q15554”, the abundance fitness is reported as -0.199 ± 0.061.
With “Telomeric repeat-binding factor 2 P520D, Q15554” the abundance fitness was -0.564 ± 0.055.
With “Telomeric repeat-binding factor 2 Q490K, Q15554” the abundance fitness was -0.247 ± 0.21.
For “Telomeric repeat-binding factor 2 S497D, Q15554”, the abundance fitness was 0.392 ± 0.099.
Work on “Telomeric repeat-binding factor 2 S516L, Q15554” yielded an abundance fitness of 0.222 ± 0.087.
For “Telomeric repeat-binding factor 2 V522R, Q15554”, the abundance fitness was 0.031 ± 0.058.
With “Telomeric repeat-binding factor 2 W499Q, Q15554” the abundance fitness was -0.018 ± 0.095.
In the case of “Telomeric repeat-binding factor 2 Y507F, Q15554”, the abundance fitness is reported as -0.559 ± 0.17.
